This is an account of results in patent publication US20190375846A1 (ULTRAHUMAN ONE, published 2019).

Positions count from the first letter of the chain named.

Test [1] deals with T1, cynomolgus monkey GITR at the cell surface (cynomolgus monkey).
T1 construct: whole, on cells; also called cyno GITR+ cells
The test can be described thus: flow cytometry, cyno GITR-transfected murine blastoma cells, 10,000-13.7 ng/ml. How it is done: (§1) Concentration-dependent binding to GITR at the cell surface was analysed using flow cytometry.
(In flow cytometry, cells or beads pass a laser one at a time.)

For test [2], the target named is T1, cynomolgus monkey GITR at the cell …. The test can be described thus: cell-based or functional assay.
In test [3] the target is T2, human GITR at the cell surface (human, UniProt Q9Y5U5 26-241).
T2 sequence (looked up): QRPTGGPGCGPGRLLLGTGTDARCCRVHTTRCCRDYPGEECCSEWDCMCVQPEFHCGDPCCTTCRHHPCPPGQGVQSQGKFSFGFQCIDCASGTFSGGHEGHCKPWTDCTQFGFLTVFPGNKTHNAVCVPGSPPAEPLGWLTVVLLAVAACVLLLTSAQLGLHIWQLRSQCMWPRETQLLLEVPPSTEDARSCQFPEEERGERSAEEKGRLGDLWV
In words: cell-based or functional assay.

For test [4], the target named is T3, human GITR-Fc (human, UniProt Q9Y5U5 26-161).
T3 construct: Recombinant GITR-Fc; also called hGITR-Fc; hGITR; not shown: Fc part
T3 sequence (looked up): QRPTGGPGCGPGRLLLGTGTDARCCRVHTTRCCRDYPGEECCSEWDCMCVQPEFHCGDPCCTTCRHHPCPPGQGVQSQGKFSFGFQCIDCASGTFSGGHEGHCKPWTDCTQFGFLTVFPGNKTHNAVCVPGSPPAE
The test can be described thus: HTRF competition: unlabelled IgG1 titrated 0.003-100 µg/ml against terbium-labelled VH1/VL1 IgG on biotinylated human GITR-Fc with SA-XL665, 665/615 ratio. How it is done: A competition HTRF assay was established to examine epitope competition against VH1/VL1 IgG by grafted and library-derived clones. The purified VH1/VL1 IgG was labelled with terbium using a labelling kit (CisBio) per the manufacturers instructions. The final reaction mix contained biotinylated human GITR-Fc, SA-XL665 (CisBio), terbium-labelled parental […], and competitor IgG of interest, prepared as described above, in a total reaction volume of 20 μl in 1× assay buffer [50 mM sodium phosphate, pH 7.5, 400 mM potassium fluoride, and 0.1% BSA (w/v)]. Reagents were added sequentially on a MiniTrak Liquid Handling Platform (Perkin-Elmer) into 384-well low-volume black plates (Nunc). Reactions proceeded for 1 h at room temperature, and plates were subsequently read on a plate reader with excitation at 340 nm and two emission readings at 615 nm (measuring input donor fluorescence from VH1-VL1-cryptate) and 665 nm (measuring output acceptor fluorescence from SAXL665). Readings were expressed as 665 nm/615 nm ratios.
To examine the competition of the library-derived clones with the unaltered, closest-germline grafted CDRs of VH1/VL1 IgG, an Homogeneous Time Resolved Fluorescence (HTRF) assay was established. This assay incorporated terbium-labelled VH1/VL1 IgG, Biotinylated hGITR-Fc and streptavidin-XL665, in solution-phase binding. […]
For orientation: Time-resolved FRET reads energy transfer from a long-lived donor to a nearby acceptor.

Test [5] has as its target T2, human GITR at the cell surface. In words: flow cytometry on CHO-K1 human GITR+ cells; competitor: soluble human GITRL.
Test [6] has the same target. In words: flow cytometry, human GITR-transfected murine blastoma cells, 10,000-13.7 ng/ml. On the procedure:
as §1

Test [7] has as its target T3, human GITR-Fc. In words: ELISA of IgG1 proteins. On the procedure: (§2) To coat Greiner Bio-One High bind ELISA plates, target proteins were diluted to 1 μg/ml in carbonate buffer and added at 100 μl per well, at 4° C., o/n. Coated plates were washed 3× with PBS pH7.4, blocked with 1% BSA in PBS (380 μl/well) for 1 hr at RT, then washed 3× with PBS-Tween 20 (PBST). GITR antibodies (100 μl/well; diluted in PBST) were then added and then incubated 1 hr at RT. Plates were then washed 3× with PBST and goat anti-human kappa chain-HRP added (100 μl/well) at RT, for 1 hr. Plates were then washed 3× with PBST and twice with PBS before the addition of 100 μl TMB per well. Reactions were stopped by adding 100 μl 2M H₂SO₄/well and OD was read on a plate reader at 450 nm. IgG binding analysis via ELISA on negatively charged biomolecular surfaces were performed as previously described (see Mouquet et al., 2010, Nature 467: 591-595).
To examine the influence of these mutations on immunogenicity and function, five further designer mutants (A6.1 to A6.5, see Table 4 for CDR sequences) were also submitted for Epibase analysis (Table 5). […] Cyno GITR binding was greatly diminished for all of clones A6.2 to A6.5.
(In general: ELISA stands for enzyme-linked immunosorbent assay.)

Test [8] concerns the target T4, cynomolgus monkey GITR-Fc (cynomolgus monkey (Macaca fascicularis)).
T4 construct: also called cyno GITR-Fc; cGITR-Fc
The test can be described thus: SPR (Biacore), Fab over GITR-Fc captured on anti-human Fc. On the procedure:
(§3) For affinity estimation, anti-human IgG Fc antibody was amine coupled at pH 5 onto three flow cells (Fc 1 to Fc 3) of a Biacore CM5 chip. The level of anti-Fc antibody immobilised onto the chip was approximately 550 RU. Human and cyno GITR-Fc and irrelevant receptor-Fc proteins were then captured onto the anti-Fc antibodies (by injecting over the antibody surface until nearly/completely saturated) in order that 80-100 RU were captured. Fab monomers were then injected over the Fc proteins captured on the chip at 37° C. a flow rate of 50 μl/min for 120 seconds, followed by Biacore running buffer (HBS-EP) being flowed over the chip for 240 seconds at 50 μl/min. The chip was regenerated between cycles using 2×15 second injections of 10 mM Glycine pH 2. The concentrations of Fab samples tested were 400, 200, 100, 50, 25, 12.5, and 6.25 nM. A Biacore running buffer control (0 nM) was also included as a control.
(§4) Monomeric Fab fragments were generated and flowed in the mobile phase on human and cyno GITR-Fc coated biosensor chips, to derive 1:1 binding values.

In test [9] the target is T3, human GITR-Fc. In words: SPR (Biacore), Fab over GITR-Fc captured on anti-human Fc, 37 C, 1:1 model. On the procedure:
as §3, §4

Test [10] concerns the target T4, cynomolgus monkey GITR-Fc. Described as above. On the procedure: as §3, §4
Test [11] deals with T3, human GITR-Fc. In words: direct titration ELISA on coated human GITR-Fc, IgG1 0.001-1 µg/ml, OD 450 nm. On the procedure:
as §2
The 17 purified IgGs described above were then tested for binding to human and cyno GITR-Fc in direct titration ELISA format.

B1: VH1/VL1 IgG1 (antibody, V domains shown)
VH: QVTLRESGPALVKPTQTLTLTCTFSGFSLSTSGMGVGWIRQPPGKALEWLAHIWWDDDKYYNPSLKSRLTISKDTSKNQVVLTMTNMDPVDTATYYCARTRRYFPFAYWGQGTLVTVSS
VL: EIVMTQSPATLSVSPGERATLSCKASQNVGTNVAWYQQKPGQAPRLLIYSASYRYSGIPARFSGSGSGTEFTLTISSLQSEDFAVYYCQQYNTDPLTFGGGTKVEIK
notes: Full-length human IgG1; also called hVH1/VL1; G-VH1/VL1
In the case of B1, the “concentration at maximum MFI” value in test [1] and in test [6] was about 1110 ng/mL throughout. Further, in [2], the “EC50 of FcγRIIIa activation, Promega ADCC reporter assay, CHO-K1 target cells expressing cyno GITR” value was found to be 160 nM. In addition, the “EC50 of FcγRIIIa activation, Promega ADCC reporter assay, CHO-K1 target cells expressing human GITR” value in [3] was determined as 35.6 nM. Besides, the “IC50 (read off the curve)” value in test [4] was about 1 µg/mL. Moreover, the “fold reduction of binding signal in the presence of 10 µg/ml soluble GITRL” value in test [5] is over 10 fold.

B2: A6.1 IgG1 (antibody, V domains shown)
VH: EVQLVESGGGLVQPGGSLRLSCAASGFSLSTSGYGVGWVRQAPGKGLEWLAHIWWDDDKYYVDSVKGRFTISRDNAKNSLYLQMNSLRAEDTAVYYCARTRQYFPFAYWGQGTLVTVSS
VL: EIVLTQSPATLSLSPGERATLSCRASQSVGSNLAWYQQKPGQAPRLLIYSASNRYTGIPARFSGSGSGTDFTLTISSLEPEDFAVYYCQQYSTDPLTFGGGTKVEIK
notes: Human IgG1, designer mutant of D-A6; built as m28; also called D-A6.1; Clone A6.1
As to B2, in [7], the binding result was “binds”.

B3: A6.4 IgG1 (antibody, V domains shown)
VH: B2 VH with V36M, G37S
VL: B2 VL
notes: Human IgG1, designer mutant of D-A6; built as m28; also called Clone A6.4
With B3, in test [7], the binding result is given as “binds”.

B4: D-A6 Fab (Fab, V domains shown)
VH: B2 VH
VL: B2 VL with N53Y
notes: v-domains built as m25; also called D-A6 Fab fragment
By Kd is commonly meant the concentration at which binding is half-saturated. What is called koff is a measure of how fast the partners let go of each other. In general, kon refers to a measure of how fast the partners come together. As for B4, in [8], the “fold improved affinity against VH1/VL1 Fab” value is about 4 fold. In [9], this molecule displayed a Kd of 120 nM, a koff of 0.011 s⁻¹ and a kon of 92000 M⁻¹ s⁻¹. Also, in [10], the Kd came out at 57 nM, the koff was found to be 0.0021 s⁻¹ and the on-rate constant (kon) worked out at 37000 M⁻¹ s⁻¹.

B5: A6.5 IgG1 (antibody, V domains shown)
VH: B2 VH with V36M
VL: B2 VL
notes: Human IgG1, designer mutant of D-A6; built as m28; also called Clone A6.5
With B5, the binding result in test [7] is “binds”.

B6: A6.3 IgG1 (antibody, V domains shown)
VH: B2 VH with G37S
VL: B2 VL
notes: Human IgG1, designer mutant of D-A6; built as m28; also called Clone A6.3
As for B6, the binding result in test [7] was “binds”.

B7: A6.2 IgG1 (antibody, V domains shown)
VH: B2 VH
VL: B2 VL with D94N
notes: Human IgG1, designer mutant of D-A6; built as m28; also called Clone A6.2
Turning to B7, in [7], the binding result is on record as “binds”.

B8: MH IgG1 (Maximally Humanized designer clone) (antibody, V domains shown)
VH: B2 VH with V36M, G37S, L50V, D58E
VL: B2 VL with N53Y, Y55A
notes: Human IgG1, designer clone; also called Clone MH
With B8, the binding result in test [11] is “binds”.
